Measurements from patent US20060024793A1.

Biological target: thrombin (manufactured by Enzyme Research Laboratories)
Assay: cell-based or functional assay

Secondary rate constant (+hep), thrombin inhibition in the presence of heparin	Secondary rate constant (-hep), thrombin inhibition in the absence of heparin	Substance
2.3e+07 M⁻¹ s⁻¹	8200 M⁻¹ s⁻¹	Neuart (human plasma-derived antithrombin III preparation, manufactured by Mitsubishi Pharma Corporation) (from UniProt P01008 33-464)
2.5e+07 M⁻¹ s⁻¹		ATIII MS705 peak (2) fraction (recombinant human antithrombin III produced by pKAN-ATIII AFMS705, FUT8 gene-double-knockout CHO/DG44 cell) (from UniProt P01008 33-464)
8.7e+06 M⁻¹ s⁻¹	7700 M⁻¹ s⁻¹	ATIII DG44 peak (1) fraction (recombinant human antithrombin III produced by pKAN-ATIII AFDG44, CHO/DG44 cell) (from UniProt P01008 33-464)
2.6e+07 M⁻¹ s⁻¹	8800 M⁻¹ s⁻¹	ATIII MS705 peak (3) fraction (recombinant human antithrombin III produced by pKAN-ATIII AFMS705, FUT8 gene-double-knockout CHO/DG44 cell) (from UniProt P01008 33-464)
2e+07 M⁻¹ s⁻¹	8600 M⁻¹ s⁻¹	ATIII DG44 peak (2) fraction (recombinant human antithrombin III produced by pKAN-ATIII AFDG44, CHO/DG44 cell) (from UniProt P01008 33-464)
